We go through 2 molecules from PMC10249625 (Biochemistry, 2023).

For assay [1], the target named is hBIMEL (141–166) BH3 peptide (human). Kind of assay: native MS.
Assay [2] shares this target. Kind of assay: HDX-MS.

B1: Bcl-2 chimera (1–34 Bcl-2, 35–50 Bcl-XL, 93–207 Bcl-2) with a C-terminal 6His tag (domain or fragment)
chain: MAHAGRTGYDNREIVMKYIHYKLSQRGYEWDAGDDVEENRTEAPEGTESEPVVHLTLRQAGDDFSRRYRRDFAEMSSQLHLTPFTARGRFATVVEELFRDGVNWGRIVAFFEFGGVMCVESVNREMSPLVDNIALWMTEYLNRHLHTWIQDNGGWDAFVELYGPSMR
With B1, the binding result in assay [1] is given as “binds”.

B2: Mcl-1 (172–327), untagged after thrombin cleavage of GST (domain or fragment, human (from the printed UniProt entry))
chain: GSGSDELYRQSLEIISRYLREQATGAKDTKPMGRSGATSRKALETLRRVGDGVQRNHETAFQGMLRKLDIKNEDDVKSLSRVMIHVFSDGVTNWGRIVTLISFGAFVAKHLKTINQESCIEPLAESITDVLVRTKRDWLVKQRGWDGFVEFFHVEDLEGG
Take B2: the binding result in assay [2] is listed as “binds”.
